# Data: the supplement of paper PMC11316812
# ± gives the standard deviation of the averaged measurements.
# Experiments:
# MCF7 = test: percentage of EdU-negative (G0-arrested) nuclei per well, 72 h; higher = more G0 arrest; settings: reference: sequence is the full UniProt precursor, the tested protein was the secreted form or ectodomain
# hTERT-HMEC = test: as above; settings: reference: sequence is the full UniProt precursor, the tested protein was the secreted form or ectodomain
# [1] = protein concentration 0.0147125 µM
# [2] = protein concentration 0.147125 µM
# [3] = protein concentration 0.0345714 µM
# [4] = protein concentration 0.345714 µM
# [5] = protein concentration 0.0225 µM
# [6] = protein concentration 0.0284475 µM
# [7] = protein concentration 0.284475 µM
# [8] = protein concentration 0.0059525 µM
# [9] = protein concentration 0.059525 µM
# [10] = protein concentration 0.0308875 µM
# [11] = protein concentration 0.308875 µM
# [12] = protein concentration 0.0175 µM
# [13] = protein concentration 0.0357143 µM
# [14] = protein concentration 0.357143 µM
# 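Also: secreted proteins added to cultured cells, EdU pulse at the end, nuclei found by Hoechst imaging, EdU status from nuclear versus surrounding ring intensity ratio, PBS as neutral control.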
substance,measurement,setting,value
MDTPRVLLSAVFLISFLWDLPGFQQASISSSSSSAELGSTKGMRSRKEGKMQRAPRDSDAGREGQEPQPRPQDEPRAQQPRAQEPPGRGPRVVPHEYMLSIYRTYSIAEKLGINASFFQSSKSANTITSFVDRGLDDLSHTPLRRQKYLFDVSMLSDKEELVGAELRLFRQAPSAPWGPPAGPLHVQLFPCLSPLLLDARTLDPQGAPPAGWEVFDVWQGLRHQPWKQLCLELRAAWGELDAGEAEARARGPQQPPPPDLRSLGFGRRVRPPQERALLVVFTRSQRKNLFAEMREQLGSAEAAGPGAGAEGSWPPPSGAPDARPWLPSPGRRRRRTAFASRHGKRHGKKSRLRCSKKPLHVNFKELGWDDWIIAPLEYEAYHCEGVCDFPLRSHLEPTNHAIIQTLMNSMDPGSTPPSCCVPTKLTPISILYIDAGNNVVYKQYEDMVVESCGCR [Q6KF10],percentage of EdU-negative,MCF7; [1],25.3 ± 1.3%
same,percentage of EdU-negative,MCF7; [2],28.7 ± 2.5%
same,percentage of EdU-negative,hTERT-HMEC; [1],4.28 ± 0.073%
same,percentage of EdU-negative,hTERT-HMEC; [2],5.35 ± 0.57%
METPAWPRVPRPETAVARTLLLGWVFAQVAGASGTTNTVAAYNLTWKSTNFKTILEWEPKPVNQVYTVQISTKSGDWKSKCFYTTDTECDLTDEIVKDVKQTYLARVFSYPAGNVESTGSAGEPLYENSPEFTPYLETNLGQPTIQSFEQVGTKVNVTVEDERTLVRRNNTFLSLRDVFGKDLIYTLYYWKSSSSGKKTAKTNTNEFLIDVDKGENYCFSVQAVIPSRTVNRKSTDSPVECMGQEKGEFREIFYIIGAVVFVVIILVIILAISLHKCRKAGVGQSWKENSPLNVS,percentage of EdU-negative,MCF7; [3],24.03 ± 0.11%
same,percentage of EdU-negative,MCF7; [4],22.3 ± 1.8%
same,percentage of EdU-negative,hTERT-HMEC; [3],4.27 ± 0.75%
same,percentage of EdU-negative,hTERT-HMEC; [4],6.032 ± 0.015%
MMRCCRRRCCCRQPPHALRPLLLLPLVLLPPLAAAAAGPNRCDTIYQGFAECLIRLGDSMGRGGELETICRSWNDFHACASQVLSGCPEEAAAVWESLQQEARQAPRPNNLHTLCGAPVHVRERGTGSETNQETLRATAPALPMAPAPPLLAAALALAYLLRPLA [Q496H8],percentage of EdU-negative,MCF7; [5],24.2 ± 1.7%
same,percentage of EdU-negative,MCF7; protein concentration 0.225 µM,23.3 ± 0.52%
same,percentage of EdU-negative,hTERT-HMEC; [5],4.98 ± 0.36%
same,percentage of EdU-negative,hTERT-HMEC; protein concentration 0.225 µM,5.04 ± 1.6%
MSLVLLSLAALCRSAVPREPTVQCGSETGPSPEWMLQHDLIPGDLRDLRVEPVTTSVATGDYSILMNVSWVLRADASIRLLKATKICVTGKSNFQSYSCVRCNYTEAFQTQTRPSGGKWTFSYIGFPVELNTVYFIGAHNIPNANMNEDGPSMSVNFTSPGCLDHIMKYKKKCVKAGSLWDPNITACKKNEETVEVNFTTTPLGNRYMALIQHSTIIGFSQVFEPHQKKQTRASVVIPVTGDSEGATVQLTPYFPTCGSDCIRHKGTVVLCPQTGVPFPLDNNKSKPGGWLPLLLLSLLVATWVLVAGIYLMWRHERIKKTSFSTTTLLPPIKVLVVYPSEICFHHTICYFTEFLQNHCRSEVILEKWQKKKIAEMGPVQWLATQKKAADKVVFLLSNDVNSVCDGTCGKSEGSPSENSQDLFPLAFNLFCSDLRSQIHLHKYVVVYFREIDTKDDYNALSVCPKYHLMKDATAFCAELLHVKQQVSAGKRSQACHDGCCSL [Q9NRM6],percentage of EdU-negative,MCF7; [5],25.3 ± 1.3%
same,percentage of EdU-negative,MCF7; protein concentration 0.225 µM,26.76 ± 0.21%
same,percentage of EdU-negative,hTERT-HMEC; [5],4.78 ± 0.46%
same,percentage of EdU-negative,hTERT-HMEC; protein concentration 0.225 µM,5.29 ± 0.1%
MQPTGREGSRALSRRYLRRLLLLLLLLLLRQPVTRAETTPGAPRALSTLGSPSLFTTPGVPSALTTPGLTTPGTPKTLDLRGRAQALMRSFPLVDGHNDLPQVLRQRYKNVLQDVNLRNFSHGQTSLDRLRDGLVGAQFWSASVSCQSQDQTAVRLALEQIDLIHRMCASYSELELVTSAEGLNSSQKLACLIGVEGGHSLDSSLSVLRSFYVLGVRYLTLTFTCSTPWAESSTKFRHHMYTNVSGLTSFGEKVVEELNRLGMMIDLSYASDTLIRRVLEVSQAPVIFSHSAARAVCDNLLNVPDDILQLLKKNGGIVMVTLSMGVLQCNLLANVSTVADHFDHIRAVIGSEFIGIGGNYDGTGRFPQGLEDVSTYPVLIEELLSRSWSEEELQGVLRGNLLRVFRQVEKVREESRAQSPVEAEFPYGQLSTSCHSHLVPQNGHQATHLEVTKQPTNRVPWRSSNASPYLVPGLVAAATIPTFTQWLC [Q9H4B8],percentage of EdU-negative,MCF7; [5],26.5 ± 1.8%
same,percentage of EdU-negative,MCF7; protein concentration 0.225 µM,27.6 ± 3%
same,percentage of EdU-negative,hTERT-HMEC; [5],5.33 ± 1.2%
same,percentage of EdU-negative,hTERT-HMEC; protein concentration 0.225 µM,5.49 ± 1.1%
MPRQLSAAAALFASLAVILHDGSQMRAKAFPETRDYSQPTAAATVQDIKKPVQQPAKQAPHQTLAARFMDGHITFQTAATVKIPTTTPATTKNTATTSPITYTLVTTQATPNNSHTAPPVTEVTVGPSLAPYSLPPTITPPAHTTGTSSSTVSHTTGNTTQPSNQTTLPATLSIALHKSTTGQKPVQPTHAPGTTAAAHNTTRTAAPASTVPGPTLAPQPSSVKTGIYQVLNGSRLCIKAEMGIQLIVQDKESVFSPRRYFNIDPNATQASGNCGTRKSNLLLNFQGGFVNLTFTKDEESYYISEVGAYLTVSDPETIYQGIKHAVVMFQTAVGHSFKCVSEQSLQLSAHLQVKTTDVQLQAFDFEDDHFGNVDECSSDYTIVLPVIGAIVVGLCLMGMGVYKIRLRCQSSGYQRI [Q9UQV4],percentage of EdU-negative,MCF7; [6],25.5 ± 0.37%
same,percentage of EdU-negative,MCF7; [7],26.2 ± 0.31%
same,percentage of EdU-negative,hTERT-HMEC; [6],5.03 ± 0.35%
same,percentage of EdU-negative,hTERT-HMEC; [7],5.04 ± 0.52%
MGVPFFSSLRCMVDLGPCWAGGLTAEMKLLLALAGLLAILATPQPSEGAAPAVLGEVDTSLVLSSMEEAKQLVDKAYKERRESIKQRLRSGSASPMELLSYFKQPVAATRTAVRAADYLHVALDLLERKLRSLWRRPFNVTDVLTPAQLNVLSKSSGCAYQDVGVTCPEQDKYRTITGMCNNRRSPTLGASNRAFVRWLPAEYEDGFSLPYGWTPGVKRNGFPVALARAVSNEIVRFPTDQLTPDQERSLMFMQWGQLLDHDLDFTPEPAARASFVTGVNCETSCVQQPPCFPLKIPPNDPRIKNQADCIPFFRSCPACPGSNITIRNQINALTSFVDASMVYGSEEPLARNLRNMSNQLGLLAVNQRFQDNGRALLPFDNLHDDPCLLTNRSARIPCFLAGDTRSSEMPELTSMHTLLLREHNRLATELKSLNPRWDGERLYQEARKIVGAMVQIITYRDYLPLVLGPTAMRKYLPTYRSYNDSVDPRIANVFTNAFRYGHTLIQPFMFRLDNRYQPMEPNPRVPLSRVFFASWRVVLEGGIDPILRGLMATPAKLNRQNQIAVDEIRERLFEQVMRIGLDLPALNMQRSRDHGLPGYNAWRRFCGLPQPETVGQLGTVLRNLKLARKLMEQYGTPNNIDIWMGGVSEPLKRKGRVGPLLACIIGTQFRKLRDGDRFWWENEGVFSMQQRQALAQISLPRIICDNTGITTVSKNNIFMSNSYPRDFVNCSTLPALNLASWREAS,percentage of EdU-negative,MCF7; [8],24.8 ± 1.3%
same,percentage of EdU-negative,MCF7; [9],26.8 ± 0.65%
same,percentage of EdU-negative,hTERT-HMEC; [8],5.02 ± 0.23%
same,percentage of EdU-negative,hTERT-HMEC; [9],4.74 ± 0.28%
MKASSLAFSLLSAAFYLLWTPSTGLKTLNLGSCVIATNLQEIRNGFSEIRGSVQAKDGNIDIRILRRTESLQDTKPANRCCLLRHLLRLYLDRVFKNYQTPDHYTLRKISSLANSFLTIKKDLRLCHAHMTCHCGEEAMKKYSQILSHFEKLEPQAAVVKALGELDILLQWMEETE [Q9NYY1],percentage of EdU-negative,MCF7; [5],25.2 ± 0.85%
same,percentage of EdU-negative,MCF7; protein concentration 0.225 µM,27.2 ± 2.3%
same,percentage of EdU-negative,hTERT-HMEC; [5],4.59 ± 0.14%
same,percentage of EdU-negative,hTERT-HMEC; protein concentration 0.225 µM,8.36 ± 0.57%
MALQRTHSLLLLLLLTLLGLGLVQPSYGQDGMYQRFLRQHVHPEETGGSDRYCNLMMQRRKMTLYHCKRFNTFIHEDIWNIRSICSTTNIQCKNGKMNCHEGVVKVTDCRDTGSSRAPNCRYRAIASTRRVVIACEGNPQVPVHFDG,percentage of EdU-negative,MCF7; [10],25 ± 2.2%
same,percentage of EdU-negative,MCF7; [11],25.6 ± 4.4%
same,percentage of EdU-negative,hTERT-HMEC; [10],4.98 ± 0.26%
same,percentage of EdU-negative,hTERT-HMEC; [11],4.74 ± 0.71%
P16144,percentage of EdU-negative,MCF7; [12],24.1 ± 3.2%
same,percentage of EdU-negative,MCF7; protein concentration 0.175 µM,28.6 ± 0.6%
same,percentage of EdU-negative,hTERT-HMEC; [12],5.31 ± 0.28%
same,percentage of EdU-negative,hTERT-HMEC; protein concentration 0.175 µM,5.29 ± 0.16%
MARAGPAWLLLAIWVVLPSWLSSAKVSSLIERISDPKDLKKLLRTRNNVLVLYSKSEVAAENHLRLLSTVAQAVKGQGTICWVDCGDAESRKLCKKMKVDLSPKDKKVELFHYQDGAFHTEYNRAVTFKSIVAFLKDPKGPPLWEEDPGAKDVVHLDSEKDFRRLLKKEEKPLLIMFYAPWCSMCKRMMPHFQKAATQLRGHAVLAGMNVYSSEFENIKEEYSVRGFPTICYFEKGRFLFQYDNYGSTAEDIVEWLKNPQPPQPQVPETPWADEGGSVYHLTDEDFDQFVKEHSSVLVMFHAPWCGHCKKMKPEFEKAAEALHGEADSSGVLAAVDATVNKALAERFHISEFPTLKYFKNGEKYAVPVLRTKKKFLEWMQNPEAPPPPEPTWEEQQTSVLHLVGDNFRETLKKKKHTLVMFYAPWCPHCKKVIPHFTATADAFKDDRKIACAAVDCVKDKNQDLCQQEAVKGYPTFHYYHYGKFAEKYDSDRTELGFTNYIRALREGDHERLGKKKEEL,percentage of EdU-negative,MCF7; protein concentration 0.019 µM,22.8 ± 0.61%
same,percentage of EdU-negative,MCF7; protein concentration 0.19 µM,22.5 ± 0.95%
same,percentage of EdU-negative,hTERT-HMEC; protein concentration 0.019 µM,4.5 ± 0.56%
same,percentage of EdU-negative,hTERT-HMEC; protein concentration 0.19 µM,6.73 ± 0.2%
MKPVLPLQFLVVFCLALQLVPGSPKQRVLKYILEPPPCISAPENCTHLCTMQEDCEKGFQCCSSFCGIVCSSETFQKRNRIKHKGSEVIMPAN [Q8IUB5],percentage of EdU-negative,MCF7; [5],25.88 ± 0.11%
same,percentage of EdU-negative,MCF7; protein concentration 0.225 µM,23.6 ± 1%
same,percentage of EdU-negative,hTERT-HMEC; [5],4.99 ± 0.22%
same,percentage of EdU-negative,hTERT-HMEC; protein concentration 0.225 µM,5.21 ± 0.23%
MVPKLFTSQICLLLLLGLLAVEGSLHVKPPQFTWAQWFETQHINMTSQQCTNAMQVINNYQRRCKNQNTFLLTTFANVVNVCGNPNMTCPSNKTRKNCHHSGSQVPLIHCNLTTPSPQNISNCRYAQTPANMFYIVACDNRDQRRDPPQYPVVPVHLDRII,percentage of EdU-negative,MCF7; [13],24.9 ± 1.8%
same,percentage of EdU-negative,MCF7; [14],27 ± 0.65%
same,percentage of EdU-negative,hTERT-HMEC; [13],4.435 ± 0.01%
same,percentage of EdU-negative,hTERT-HMEC; [14],5.25 ± 0.32%
